Measured values from the supplement of paper PMC10567573.
± gives the standard deviation.

Assay: protein stability index of a GFP-peptide fusion (GPS, HEK-293T) (PSI 1-6); higher = more stable
Conditions: c terminus: a fixed tail appended
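Further: 24-mer peptide tiles fused after GFP, lentivirally expressed, FACS-sorted into six equal bins by GFP/DsRed ratio, decoded by Illumina sequencing, PSI is the read-weighted mean bin number.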

LIQNEYRNGGSLADAISENYRIMS [WEE1]
protein stability index (treatment: DMSO): 2.38 ± 0.31
protein stability index (treatment: MLN4924 1 uM, 8 h): 2.5 ± 0.48

SATALYRTDYSGRGELSARQMHLA [RAD51]
protein stability index (treatment: DMSO): 3.26 ± 0.19
protein stability index (treatment: MLN4924 1 uM, 8 h): 3.33 ± 0.21

CTEKFKTSRDRKDHMVRMHLYPAD [ZNF511]
protein stability index (treatment: DMSO): 3.49 ± 0.38
protein stability index (treatment: MLN4924 1 uM, 8 h): 3.48 ± 0.25

PEGARRGLGVLRALGSRGWEPFDW [FANCE]
protein stability index (treatment: DMSO): 3.05 ± 0.34
protein stability index (treatment: MLN4924 1 uM, 8 h): 2.98 ± 0.42

DATLSLKQTILDKEEKQRRNVAKN [TTC32]
protein stability index (treatment: DMSO): 4.99 ± 0.28
protein stability index (treatment: MLN4924 1 uM, 8 h): 4.91 ± 0.19

APATGSGTPGPFTKEGGMLAYYEV [CHIT1]
protein stability index (treatment: DMSO): 2.55 ± 0.25
protein stability index (treatment: MLN4924 1 uM, 8 h): 2.63 ± 0.16

AVLRRIQLQPTSIEKEVFPIMAKE [GMPPB]
protein stability index (treatment: DMSO): 2.52 ± 0.33
protein stability index (treatment: MLN4924 1 uM, 8 h): 2.57 ± 0.36

CAQMLPPNLSPHAPWNYHYHCPGS [TRAF3IP2]
protein stability index (treatment: DMSO): 2.56 ± 0.49
protein stability index (treatment: MLN4924 1 uM, 8 h): 2.28 ± 0.29

LAGLTRPDVRPPLGRGLVGGQEEA [SEPHS2]
protein stability index (treatment: DMSO): 4.86 ± 0.094
protein stability index (treatment: MLN4924 1 uM, 8 h): 4.92 ± 0.083

FPGPQEHTQVLPDVRLLPRRLPLA [DYRK1B]
protein stability index (treatment: DMSO): 3.37 ± 0.083
protein stability index (treatment: MLN4924 1 uM, 8 h): 3.58 ± 0.2

ATKTEPKKLEKYLQKLSALLMTAD [ELOA2]
protein stability index (treatment: DMSO): 2.54 ± 0.59
protein stability index (treatment: MLN4924 1 uM, 8 h): 2.31 ± 0.54

PGKDYDADRQCQLTFGPDSRHCPQ [ADAMTS4]
protein stability index (treatment: DMSO): 4.68 ± 0.26
protein stability index (treatment: MLN4924 1 uM, 8 h): 4.67 ± 0.24

NKRLAKYRMRNVHPKPKLVRVLES [CLCN6]
protein stability index (treatment: DMSO): 3.1 ± 0.33
protein stability index (treatment: MLN4924 1 uM, 8 h): 3 ± 0.29

EENRLREELRQEWEAKQEKIKSEE [FAM50A]
protein stability index (treatment: DMSO): 5.59 ± 0.14
protein stability index (treatment: MLN4924 1 uM, 8 h): 5.52 ± 0.21

PAPERTMAGLSKEPNTLRAPRVRT [VENTX]
protein stability index (treatment: DMSO): 4.86 ± 0.29
protein stability index (treatment: MLN4924 1 uM, 8 h): 4.85 ± 0.32

LREKLLEAEQSLRNLEDIHMSLEK [TEKT4]
protein stability index (treatment: DMSO): 3.03 ± 0.52
protein stability index (treatment: MLN4924 1 uM, 8 h): 3.3 ± 0.63

APAPAPEEWLDILGNGLLRKKTLV [FKBP8]
protein stability index (treatment: DMSO): 3.19 ± 0.32
protein stability index (treatment: MLN4924 1 uM, 8 h): 3.24 ± 0.27

PRDLPKHTPLISKSQSLRSVRRSE [RASAL3]
protein stability index (treatment: DMSO): 5.19 ± 0.27
protein stability index (treatment: MLN4924 1 uM, 8 h): 5.43 ± 0.2

FIYSTWKGRTIYLEDIYVMPEYRG [SAT2]
protein stability index (treatment: DMSO): 3.21 ± 0.44
protein stability index (treatment: MLN4924 1 uM, 8 h): 2.8 ± 0.52

PEIEKADDHLQQPLQNQKILKRTG [ZNF649]
protein stability index (treatment: DMSO): 5.3 ± 0.29
protein stability index (treatment: MLN4924 1 uM, 8 h): 5.5 ± 0.24

PQVPPSQPLRPWAGGDVPHKTHQA [DYRK1B]
protein stability index (treatment: DMSO): 4.41 ± 0.32
protein stability index (treatment: MLN4924 1 uM, 8 h): 4.63 ± 0.21

SSGSFCYCHPDSETDEDEEEGDEQ [GMCL1]
protein stability index (treatment: DMSO): 5.52 ± 0.17
protein stability index (treatment: MLN4924 1 uM, 8 h): 5.39 ± 0.14

GPLVPRLAGMANHGSPQLGEGMFQ [TBX5]
protein stability index (treatment: DMSO): 3.67 ± 0.26
protein stability index (treatment: MLN4924 1 uM, 8 h): 3.75 ± 0.15

GGSELGGWSLGRWTHDGIDINNNF [CPXM2]
protein stability index (treatment: DMSO): 3.06 ± 0.031
protein stability index (treatment: MLN4924 1 uM, 8 h): 2.64 ± 0.054

YTAQQDQELDIKKNERLWLLDDSK [NCK2]
protein stability index (treatment: DMSO): 4.37 ± 0.27
protein stability index (treatment: MLN4924 1 uM, 8 h): 4.65 ± 0.15

KDEPSKYNQQQALIDQRYFQVLCS [CEP70]
protein stability index (treatment: DMSO): 3 ± 0.063
protein stability index (treatment: MLN4924 1 uM, 8 h): 3.13 ± 0.24

SQLSMKAGLENTVAETECRYALQL [KRT13]
protein stability index (treatment: DMSO): 3.37 ± 0.2
protein stability index (treatment: MLN4924 1 uM, 8 h): 3.35 ± 0.25

LVTTGANVNETDDWGRTALHYAAA [ANKRD44]
protein stability index (treatment: DMSO): 3.34 ± 0.26
protein stability index (treatment: MLN4924 1 uM, 8 h): 3.52 ± 0.15

QSCWAFLPDLCLCRVFWWLGDRDR [FBXO39]
protein stability index (treatment: DMSO): 2.2 ± 0.35
protein stability index (treatment: MLN4924 1 uM, 8 h): 2.27 ± 0.36

EGCKSFFKRSVRRNLSYTCRANRN [NR2F2]
protein stability index (treatment: DMSO): 3.34 ± 0.36
protein stability index (treatment: MLN4924 1 uM, 8 h): 3.52 ± 0.31

RAVRQSVTSFPDADAFHHQVHDDD [EMD]
protein stability index (treatment: DMSO): 5.2 ± 0.17
protein stability index (treatment: MLN4924 1 uM, 8 h): 5.314 ± 0.044

TITLNCPRNSDMKNQGEENGFPDS [EDARADD]
protein stability index (treatment: DMSO): 4.11 ± 0.51
protein stability index (treatment: MLN4924 1 uM, 8 h): 4.23 ± 0.19

EIATKPHEKIGFPAARRCHSCVQI [KLHDC10]
protein stability index (treatment: DMSO): 2.43 ± 0.29
protein stability index (treatment: MLN4924 1 uM, 8 h): 2.59 ± 0.2

SEKETMQFLNDRLASYLEKVRQLE [KRT33B]
protein stability index (treatment: DMSO): 2.55 ± 0.12
protein stability index (treatment: MLN4924 1 uM, 8 h): 2.66 ± 0.28

FGGSFMAPSPSPVTPAQNNLLQPN [SNAP91]
protein stability index (treatment: DMSO): 2.64 ± 0.59
protein stability index (treatment: MLN4924 1 uM, 8 h): 3.09 ± 0.4

DHWNNEKERILLVTDKTLLICKYD [TPRG1]
protein stability index (treatment: DMSO): 2.18 ± 0.32
protein stability index (treatment: MLN4924 1 uM, 8 h): 2.47 ± 0.15

LRDHADSNIVIMLVGNKSDLRHLR [RAB11A]
protein stability index (treatment: DMSO): 2.36 ± 0.24
protein stability index (treatment: MLN4924 1 uM, 8 h): 2.18 ± 0.38

SHRSNLIRHQRIHTGEKPYTCHEC [ZNF263]
protein stability index (treatment: DMSO): 3.16 ± 0.26
protein stability index (treatment: MLN4924 1 uM, 8 h): 3.49 ± 0.23

TAGKVLAHFYGVKLEGKVPMHKLF [ESRRA]
protein stability index (treatment: DMSO): 2.41 ± 0.39
protein stability index (treatment: MLN4924 1 uM, 8 h): 2.44 ± 0.79

MRYLRNHCLDQVGLFRKSGVKSRI [DLC1]
protein stability index (treatment: DMSO): 2.64 ± 0.36
protein stability index (treatment: MLN4924 1 uM, 8 h): 2.64 ± 0.37

CPAELRPQVPQPPSPAAVPRPPSN [TRAF3IP2]
protein stability index (treatment: DMSO): 5.18 ± 0.13
protein stability index (treatment: MLN4924 1 uM, 8 h): 5.01 ± 0.28

TGKGPSTHTQIDQQPPRLLIVHIA [M1AP]
protein stability index (treatment: DMSO): 2.54 ± 0.34
protein stability index (treatment: MLN4924 1 uM, 8 h): 2.44 ± 0.6

IADLFVADQRSRMLSIFYFAIPVG [SPNS1]
protein stability index (treatment: DMSO): 3.08 ± 0.65
protein stability index (treatment: MLN4924 1 uM, 8 h): 2.94 ± 0.41

PESVEASPVVVEKSNSYPHQLYTS [KMT2E]
protein stability index (treatment: DMSO): 4.34 ± 0.32
protein stability index (treatment: MLN4924 1 uM, 8 h): 4.44 ± 0.26
